# Source: publication PMC12597101
# System: 151AmF-GFP (azide-exposed GFP, protein part of RGG/DGG) (synthetic (codon-optimized GFP, expressed in E. coli NiCo21(DE3)))
# Assay: EMSA (SDS-PAGE gel shift)
# Conditions: clicked to AmF-GFP, 59 pmol GFP + 59 pmol guide, SPAAC at 4 C for 1.5 h, then equal volume of target, 20 min at room temperature, 15% SDS-PAGE, protein stored in 50 mM HEPES …
Sequence,"binding signal (DGG (covalent DNA guide), DBCO on guide DNA)","binding signal (RGG (covalent RNA guide), DBCO on guide RNA)"
TAACCCTAACCCTAACCCTAACCCTA / GCUAGAUCCGUAGGGUUAGGGUUAGGGUUAGGGUUAACCUCCGACC [Tel26-DBCO-DNA guide + Target RNA [Tel26]],86 % bound,
UAACCCUAACCCUAACCCUAACCCUA / GCUAGAUCCGUAGGGUUAGGGUUAGGGUUAGGGUUAACCUCCGACC [Tel26-DBCO-RNA guide + Target RNA [Tel26]],,88 % bound
